This series in a line: label from the status in PepcDB records.

We go through 18 sequences from a protein production outcome set (Wang et al. 2014).
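Further: failed if final PepcDB status was selected cloned or expressed and not failed if soluble or beyond.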

For “MNNPQDYSHKECLKASLLETFGFDGFRPGQEQTITQLLKGQSSLSIFPTGSGKSLCYQLTALHLPHLTLVVSPLLALMKDQLSFLASKGIKAASIDSTLKGNEAQTVMAGVRDGDIKVLMVSVERFKNERFRQFIESVPVSMLVVDEAHCISEWGHNFRPDYLKLPSYCQALNISLVLLLTATATRKVKQDMAAKFAIRDEHIVQTGFYRSNLDLSVLPVTQAHKNKQLEQIISAQQGAGIVYVTLQHSAETVAQYLKQQGINACAYHAGFDSDTRSQIQQDFMAGKIQVIVATIAFGMGIDKSNIRFVIHYDLPKSIENYSQEIGRAGRDGLPSQCFTLANLDGLNTVENFVYGDTPEFTGIEMLLNTIKSEVITSTHVGISDNRSEGKWELQILQLSNAVNIKQLPLKTLLVQLELAGVIEPLYAYFADFKIKLLKPKAEIINSFNDQRKDFLQRIFNATDFKKVWGSLNFDTLLQDQSIERNRVIAALEYLQEQQLIVLETKGMTEVFNIKLNELADPSLCQTLSNYFKDNEEKEIKRIATLVRFFQLDTCLTVNLARYFDDTSFDDKRFDGNSSDNNSLDSARNSGTVPQCGHCSVCRGQVAVLEHSQAQIPWPSDEALKQGMTELAERLSGKINQPLSIESFCRFFAGMSVPLFGRNKVRQLSGFGVCEQQRYQAILEKLASLSK”, the protein production entry is on record as “failed”.

Turning to “MNNSAFTFQTLHPDTIMDALFEHGIRVDSGLTPLNSYENRVYQFQDEDRRRFVVKFYRPERWTADQILEEHQFALQLVNDEVPVAAPVAFNGQTLLNHQGFYFAVFPSVGGRQFEADNIDQMEAVGRYLGRMHQTGRKQLFIHRPTIGLNEYLIEPRKLFEDATLIPSGLKAAFLKATDELIAAVTAHWREDFTVLRLHGDCHAGNILWRDGPMFVDLDDARNGPAVQDLWMLLNGDKAEQRMQLETIIEAYEEFSEFDTAEIGLIEPLRAMRLVYYLAWLMRRWADPAFPKNFPWLTGEDYWLRQTATFIEQAKVLQEPPLQLTPMY”, the protein production result is listed as “not failed”.

As to “MNNSTQTAPDSGNTLVISNVHLLLSDGWKNDTCLQVTEGVITAIGQDVVQGNSQVIDAGGGYLLPGIIDLHGDAFERHITPRAGTLFPLDLALAANDASLVANGITTFYYSITDGFEPGPRSRETVRKLLLALEELMPRFSCQAKVHIRHEKVNTEGHDELVDWLRNGRVHMLSLNDHLPELDNERAVKRYLAGLQRRVTMDDDATQEFLSSLQGRRELGEEQTRALASLALASGVSLSSHDDHGLEDVARNVQLGTAIAEFPMDAQTALESRKSGISVLMGAPNLVRGGSHVGAISVRDAIAEGLVDILCSDYHYPSLFTAPFVTARHDLLPLADAWKMVSENPARAAGMGDRKGQIAPGYDADLLLLSELDGSPLSLQATFVGGTPVYQREGQWQKQPLAAEAGGVVV”, the protein production result was “failed”.

Take “MNNTPVEPVRLTPDNPLVSVVIRTKDRPKRLAEAVRSVREQTHRPLEVIVVNDGGWPLPEEALKEQAGDVELILIQLEQNQGRSIAANTGLQAATGRYLCFLDDDDRFLPDHIELLSSCLEHIEHRVCYSDAELCWQVYNVETGEFDIVNRQVFGSRDFNLAELLCGNYIPLNTLLFDRQVLLQVGGFDPQFDIYEDWDLLLRVGSLYPFYHLPRVTAQYNQWSKDHQNFYNHFSQTGQAPLLHITGYDRLIEKNRHLFSADAARHLLSVINRLRAIEAELAQRDAVPAESPLTRLTAQLEQTLATIGPSFATLEGRLADLDACQRDALVSATSKLNEGVSDLDGLRSQVAHLCMEFENASGKIDTSQAELQKTATLLVQTQNLLEDYRKEIARTTELNRLISERDSELRTLRQTIARNEAEITALHKERNEANATISALDEKVAHAETEKASLHQIIAQTEARLASVYGSTSWRIAAPLRAVSVAVRWLLRNTRRAFLLMWWLCTGQYARATNHAFPHLWRHVPPRLKMIIPPRLAGSVKRRLHLADITAPRPLENQPDNSHPDTTAEAHVTLDVPERHYVDLSSEPVAHTPIKAIAFYLPQFHTIPENDKWWGEGFTEWTNTRKGKPLFDGHHQPRVPLHLGYYNLENIEVYAQQVQLARKAGLYGFCFYFYWFGGKTLLEKPLLNMLANPQIDQPFCLCWANENWTRRWDGLDDDILIAQHHSEEDAIAFLRYINTYFRDDRYIKIDGKPLLLVYRPSIIPDITHIQEVWRKHATELGWPGIYLVSAQTFGQKDPRDFHFDAAVQFPPQHAAPCAAFHSETPNLADDFEGCVFDYHNVATQFCDSPEVDYKLFRSVTLAWDNSARRGKRATILRNFSLTSYAQWLLTACKATLADHNLTENERLVFINCMERMGRGHLSGAGHQIWLWIPGSHKKGAECILGWKTQAIRNRSKL”: the protein production entry is “failed”.

In the case of “MNPADWIDTGAVPPRPLPAKVDAALAYLAEALGHPVYAHWTLTRIKRRYGSLADAKAAQPTVLKLLLTHDGAVEYWERGRLRTAPADQAPSPDAVLARLLHTHRRRFRSADASANAGAVPATAQTTGLVANPWLAAHSHADHAWLARTGRFAQPQAAANTLGAVDDAQALALFLRDRTGRSSHTLRAYGAELRRLMRWCGTHGFGPFSDLTRQQLLAYRHTLEHGSSGTANTTPPLSEATRTRALAVVASLYGYWYATGYLHANPAAGLSAGSRARSGFVPTRLIPSALLDACDAWLDANSAGDLLPALRQRAIWALYRYAGVRLAELAWSAETALPRLEAEAPGRWTLYVCGKGRKVRAIPLPAQCMVVLRAYRRARGLPPEPSAHETLPVIHGSKGEALQQTGLYREIKAIFAVVADGLQAREPAKAMLLRAASPHWLRHAYARTLVVDHQVPLPAAQALLGHASVQTTAAYAKTDLTQLRAFVDATFADDVP”, the protein production entry is recorded as “failed”.

“MNPAPFLLLGGALAWLTLYLLGGRKVKAGEFILGAIIFPLSITLQNIVQQLPLLWVGIRPDITSLGTSEIIAISIWMGLIAGIFQELFKYIFVRGKSAGYAFSVGLGFAISEVIFITALVTLSAKGGTPSQPFATNLLSLAERYLVVLFHVGTAIMLTQGTRKVLIEVIGLHALIDSMAAYYQLMSAVYIKTNKIYMIPRILLLTEIVLAVITVIVLIASLPKISQVKEEKEEVIW”: the protein production result is on record as “failed”.

In the case of “MNPAYRKAMLESEIQKLLMEALQQLRDPRLKKDFVTFSRVELSKDKRYADVYVSFLGTPEERKETVEILNRAKGFFRTFIAKNLRLYVAPEIRFYEDKGIEASVKVHQLLVQLGYDPLKDKEKKEEDKEEE”, the protein production entry was “not failed”.

“MNPEPRCPCVLLLDTSGSMQGAAIEALNQGLLSLKDELMKNSIAARRVEIAIVTFDSHINVIQDFVTADQFNPPILTAQGLTSMGAGIHKALDMVQERKSLYRANGVAYYRPWVFMITDGEPQGELDHLVEQAALRLQGDEVNKRVAFFSVGVENANMTRLNQIAVRTPLEHHHHHH”: the protein production result is given as “failed”.

Take “MNPFTYSKPTDITAAVNLSGPATRFIAGGTNLLDLMKENVATPEHLIDITGLPLREVSETASGGLMIGALVSNADLAYHPLIEARYPLLSKAVLAGASPQLRNMASTGGNLLQRTRCYYFYDTGVPCNKREPGSGCPAREGLNRIHAILGASDECVATHPSDMCVALAALEAVVHVEGRAGRRTIEFADFHRLPGDAPQRDNQLADDELIIAVELPAQGFASHNAYLKIRDRASYAFALISVAAAIDLDGDVVRDVRLALGGVAHKPWRDKAVEALLIGKPVTREHFAAAADAMLEDAKPLEHNGFKVRLARRAIIRALSDAATGGSAL”: the protein production result was “not failed”.

As to “MNPILNLIISFIALLWAANHLVAGSSGLAIRFQLSPLMIGLTIVALGTSAPELFISIISSLKDKNDLAIGNAIGSNIANIGLILGIIILIKPTSFHFNKLKKVYPILIIVMLFAYSLILDGYLGTIDGCLFLIGCIAVLCYFIYLASHSPKRDLSVNEFRPAILSYRSTPSNLLSIAIGLLILPICSKYLVYNASEIAKWAGISEFTIGLTIIAIGSSLPELTTALVAAIKGEDSIAIGTIIGSNIYNLLLILALPGLLNPTKISSVVLWRDMPVMLSITLLLLFLNYYYQKKTSSWPGGILLLVYFCYMASLIINAHS”, the protein production entry is “failed”.

Regarding “MNPKVKGIIAILVSAIGFSFMSVFFRLAGDLPVFQKSLARNLVAMFIPLYFIYKYKQPLFGKLSSQPLLISRSTLGLIGVLLNIYAIDHMILSDADTLMKLNPFWTILLSLIFLNEKVRNYQIIAMVIAIFGMLFVVKPEFSSSMIPAIGGLFSGIFAASAYTCVRALSTREAPYTIVFYFSFFSIVVLIPFTIFTFEPMSMMQVIYLIGAGLAAAAGQIGITLAYSYAPAKDISIFTYASIIFTAFFGFILFGESPDFYAILGYVIIIASSYYMFEKARRQPLSIQKEEQKPKT”, the protein production result was “failed”.

“MNPRLALALKLLEAGLVESAAIPVAQALERDPDDPRAHHLAGLIARRGGDGALALAAFTRGLAVAADDAPLRIERAGLLLDLGRAEEALADLAVALALAPDHQAVLSTQGRALIDLGRPGEALAPLRRARALAPDDVAPAHNLGRALLALDRPDEALPLLEAAVARAPGAIDPRADLAEALRRLDRPGDAAQLLRAVLADAPGRADLADALAGALLAAGAVDESVAVLRASLDKAPTHGAGWVNLAAALIETGALDEATAAADRALALDPDDADAKVNRAFARCLADDYEQGFADYAHRWRTAAFQRPYPPVTAPPWAGEPLGEGTLLVRGEQGLGDQIMAARFLPWLSKRPDRPRRIVFECHPCLHRLLAEGLEAGIDLLAMGRPPPPVAAWIGALDLARMAGVTAGVMPVDVPYLKARPPVPPLAPPLPPGGRGRLGLVWAGKTRPRDRSCPLEPLAGLCVDQGWTVHALQLGPRRADLAGLPAGLGVIDEGDRLGDMAATASVMAGLDLVVAVDTAVAHLAGALGLPCALLLLATPDWRWGQKASRTVWYPSLRLFRQPHPGDWDGAFDAVRRAFAQGWPLS”: the protein production result is “failed”.

Take “MNQEKLLALMMDLHQDGARQGPGSETETLRALELTRIDPLAKLQVADIGCGTGASTLVLASKLQNAQITAIDIFPEFLDVLSTRAKVMGYSEKIETLTESMDKLSFADESLDLIWSEGAIYNLGFAQGIECWKPMLKTGGVLAVSEITWLNPLPPEEIRQHWNTEYPEIATASEKIAILEHGGYDLIGYFILPSTNWLDSYYTPVEERIHDFLKRHRGDLEAEELIKMERREMDLYSRFKNWFSYGFYVARKR”: the protein production result is on record as “failed”.

In the case of “MNQHTLLPKKTERLQYFGSVSPIKGEKPVEKEKMKDLQNIRKDYFFDIQHVGVANVSHPVTITSAMMPAEQTTAANFTMTCNLPRNQKGINMSRLTELLQVYHQNGWILSFSSLQQFTKELAENMDTSSATVEVRFPWFFERKSPKLEKAGLMHADIFMSVTYRKDQPFKQRAGISAKVTTLCPCSKEISEYSAHNQRGTVKHLGRIFTRAASLPSDVKADLPHAAESNASARLHPVLKRPDEKAVTETAYENPRFVEDLARLIAADLFELEWVSAFEIECRNEESIHLHRCLCEVCFSKEVDKI”, the protein production result is “failed”.

Regarding “MNQLEFEQVSLYQIIVDSEKLAQEIYYQIEDEEISFYEAAYLYDVDAVRRQRCGYEGKVYRFSLPVNVATVIFRTSPKQLISPLQTEQGYHLFMVEEFIPAELEHHHHHH”, the protein production result is given as “failed”.

As to “MNQLTAYTLRLGDNCLVLSQRLGEWCGHAPELEIDLALANIGLDLLGQARNFLSYAAELAGEGDEDTLAFTRDERQFSNLLLVEQPNGNFADTIARQYFIDAWHVALFTRLMESRDPQLAAISAKAIKEARYHLRFSRGWLERLGNGTDVSGQKMQQAINKLWRFTAELFDADEIDIALSEEGIAVDPRTLRAAWEAEVFAGINEATLNVPQEQAYRTGGKKGLHTEHLGPMLAEMQYLQRVLPGQQW”, the protein production entry was “not failed”.

Take “MNQPSSLAADLRGAWHAQAQSHPLITLGLAASAAGVVLLLVAGIVNALTGENRVHVGYAVLGGTAGFAATALGALMALGLRAISARTQDAMLGFAAGMMLAASAFSLILPGLDAAGTIVGPGPAAAAVVALGLGLGVLLMLGLDYFTPHEHERTGHQGPEAARVNRVWLFVLTIILHNLPEGMAIGVSFATGDLRIGLPLTSAIAIQDVPEGLAVALALRAVGLPIGRAVLVAVASGLMEPLGALVGVGISSGFALAYPISMGLAAGAMIFVVSHEVIPETHRNGHETTATVGLMAGFALMMFLDTALG”: the protein production result was “failed”.

For “MNQSIIFTEQLTWDVQLSAIHFTAQQQGMVIDCYIGQKVLEHLAAEKINNSEQALSLFEQFRFDIEEQAEKLIEQEAFDVQGHIQVERVD”, the protein production result is “not failed”.
